In patent publication US20260049134A1 (UNIVERSITY OF FLORIDA RESEARCH FOUNDATION, published 2026):
Changes are numbered by the printed parent chain. Names may count otherwise.

T1: IL13RA1
T1 construct: also called IL13RA1-Fc-His (R&D Systems)
T1 chain: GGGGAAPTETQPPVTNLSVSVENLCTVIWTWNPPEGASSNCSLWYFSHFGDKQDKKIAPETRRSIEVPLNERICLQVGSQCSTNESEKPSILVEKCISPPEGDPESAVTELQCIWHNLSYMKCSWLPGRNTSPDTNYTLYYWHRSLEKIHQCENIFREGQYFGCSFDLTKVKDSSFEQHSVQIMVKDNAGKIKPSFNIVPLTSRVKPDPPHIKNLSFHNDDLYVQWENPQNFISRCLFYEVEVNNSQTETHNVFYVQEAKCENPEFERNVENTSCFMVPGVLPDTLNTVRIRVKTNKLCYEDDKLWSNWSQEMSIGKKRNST

T2: SELL
T2 construct: also called SELL-Fc-His (R&D Systems); L-Selectin
T2 chain: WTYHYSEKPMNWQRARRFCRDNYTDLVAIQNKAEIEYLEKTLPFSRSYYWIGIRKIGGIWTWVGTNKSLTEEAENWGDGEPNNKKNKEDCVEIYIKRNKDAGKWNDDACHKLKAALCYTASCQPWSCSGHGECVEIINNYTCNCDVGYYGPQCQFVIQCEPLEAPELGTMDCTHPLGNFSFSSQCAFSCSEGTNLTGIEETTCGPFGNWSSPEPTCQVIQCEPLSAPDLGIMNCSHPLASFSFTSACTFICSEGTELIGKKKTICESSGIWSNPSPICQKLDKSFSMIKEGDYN

T3: IGSF11
T3 construct: also called IGSF11-Fc (R&D Systems)
T3 chain: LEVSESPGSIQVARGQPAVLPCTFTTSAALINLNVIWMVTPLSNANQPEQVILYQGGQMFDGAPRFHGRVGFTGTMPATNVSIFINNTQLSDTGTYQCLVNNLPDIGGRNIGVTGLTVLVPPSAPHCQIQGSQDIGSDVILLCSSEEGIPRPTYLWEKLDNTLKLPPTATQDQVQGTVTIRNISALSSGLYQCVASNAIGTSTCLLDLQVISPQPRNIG

T4: SLAMF7
T4 construct: also called SLAMF7-StrepTag; not shown: StrepTag and any linker
T4 chain: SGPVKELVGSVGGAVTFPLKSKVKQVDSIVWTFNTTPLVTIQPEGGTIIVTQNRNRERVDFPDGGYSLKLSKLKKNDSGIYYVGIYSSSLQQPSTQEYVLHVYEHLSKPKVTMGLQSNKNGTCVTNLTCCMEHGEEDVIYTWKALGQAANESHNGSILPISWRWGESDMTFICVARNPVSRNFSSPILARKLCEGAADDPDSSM

T5: HHLA2
T5 construct: also called HHLA2-Fc (R&D Systems); B7-H7; not shown: Fc part and any linker
T5 chain: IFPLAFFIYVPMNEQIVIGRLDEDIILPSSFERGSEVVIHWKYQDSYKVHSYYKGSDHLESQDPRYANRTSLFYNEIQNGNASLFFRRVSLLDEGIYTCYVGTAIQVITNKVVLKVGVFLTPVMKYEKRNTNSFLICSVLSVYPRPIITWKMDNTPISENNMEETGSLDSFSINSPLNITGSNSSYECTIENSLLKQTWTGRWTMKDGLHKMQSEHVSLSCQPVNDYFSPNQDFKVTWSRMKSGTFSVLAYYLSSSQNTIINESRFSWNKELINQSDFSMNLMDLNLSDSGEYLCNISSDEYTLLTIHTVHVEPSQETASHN

B1: HW-25 chimeric rabbit-human IgG1 LA/LA/PG (antibody, V domains shown)
VH: QSLEESGGRLVTPGTPLTLTCTVSGFSLSSYAMGWVRQAPGKGLEWIGIIDSRGSTYYATWAKGRFTISKTSTTVDLKITSPTTEDTATYFCAREDSYYYDSFNLWGPGTLVTVSS
VL: SFVLTQPASVQVNLGQTVSLTCTADTLSRRYASWYQQKPGQAPVLLIYRDTSRPSGVPDRFSGSSSGNTATLTISGAQAGDEADYYCATSDGSGSSYQCVFGGGTQLTVTG
notes: Fc-silenced (L234A/L235A/P329G) IgG1, lambda; Alexa Fluor 647-labeled in single-step flow cytometry; Cluster C-1
B2: HW-17 chimeric rabbit-human IgG1 LA/LA/PG (antibody, V domains shown)
VH: QSLGESRGRLVTPDETLTLTCTVSGIDLSSNAMSWVRQAPGEGLEWIGTINTGGRAYYASWAKGRFTISRTSTTVDLKMTSLTTEDTATYFCARERYSDGRAYDIWGPGTLVTISS
VL: B1 VL with R49T, T51S, S52N, V57I, S90D, S96I, C99Y
notes: as for B1
B3: HW-1 chimeric rabbit-human IgG1 LA/LA/PG (antibody, V domains shown)
VH: QSLEESGGGLFKPTDTLTLTCTASGFSLGSSYAISWVRQAPGKELEWIGTIDSGRAYYARWAKSRSTITRNTNENTVTLKMTSLTAADTATYFCARDLIPTYSQDIWGPGTLVTISS
VL: B1 VL with S95N, C99Y, G111S
notes: Fc-silenced (L234A/L235A/P329G) IgG1, lambda; Alexa Fluor 647-labeled in single-step flow cytometry; Prototype of cluster C-1

What was measured:
IL13RA1 = biological target: T1, IL13RA1; assay: ELISA on coated protein
SELL = biological target: T2, SELL; assay: ELISA on coated protein
PTP4A3 = biological target: T6, PTP4A3; assay: ELISA on coated protein
T6 construct: also called His-PTP4A3 (R&D Systems)

IGSF11 = biological target: T3, IGSF11; assay: ELISA on coated protein
SLAMF7 = biological target: T4, SLAMF7; assay: ELISA on coated protein
HHLA2 = biological target: T5, HHLA2; assay: ELISA on coated protein
[1] = biological target: T7, PTPRG, endogenous in H929 multiple myeloma cells (human, UniProt P23470 20-1445); assay: flow cytometry, H929 + vehicle; None 513
T7 construct: Native protein on H929 cells (flow cytometry, siRNA knockdown) and in H929 lysates (IP/MS); also called phosphatase receptor type γ
T7 sequence (P23470 20-1445 limits assumed): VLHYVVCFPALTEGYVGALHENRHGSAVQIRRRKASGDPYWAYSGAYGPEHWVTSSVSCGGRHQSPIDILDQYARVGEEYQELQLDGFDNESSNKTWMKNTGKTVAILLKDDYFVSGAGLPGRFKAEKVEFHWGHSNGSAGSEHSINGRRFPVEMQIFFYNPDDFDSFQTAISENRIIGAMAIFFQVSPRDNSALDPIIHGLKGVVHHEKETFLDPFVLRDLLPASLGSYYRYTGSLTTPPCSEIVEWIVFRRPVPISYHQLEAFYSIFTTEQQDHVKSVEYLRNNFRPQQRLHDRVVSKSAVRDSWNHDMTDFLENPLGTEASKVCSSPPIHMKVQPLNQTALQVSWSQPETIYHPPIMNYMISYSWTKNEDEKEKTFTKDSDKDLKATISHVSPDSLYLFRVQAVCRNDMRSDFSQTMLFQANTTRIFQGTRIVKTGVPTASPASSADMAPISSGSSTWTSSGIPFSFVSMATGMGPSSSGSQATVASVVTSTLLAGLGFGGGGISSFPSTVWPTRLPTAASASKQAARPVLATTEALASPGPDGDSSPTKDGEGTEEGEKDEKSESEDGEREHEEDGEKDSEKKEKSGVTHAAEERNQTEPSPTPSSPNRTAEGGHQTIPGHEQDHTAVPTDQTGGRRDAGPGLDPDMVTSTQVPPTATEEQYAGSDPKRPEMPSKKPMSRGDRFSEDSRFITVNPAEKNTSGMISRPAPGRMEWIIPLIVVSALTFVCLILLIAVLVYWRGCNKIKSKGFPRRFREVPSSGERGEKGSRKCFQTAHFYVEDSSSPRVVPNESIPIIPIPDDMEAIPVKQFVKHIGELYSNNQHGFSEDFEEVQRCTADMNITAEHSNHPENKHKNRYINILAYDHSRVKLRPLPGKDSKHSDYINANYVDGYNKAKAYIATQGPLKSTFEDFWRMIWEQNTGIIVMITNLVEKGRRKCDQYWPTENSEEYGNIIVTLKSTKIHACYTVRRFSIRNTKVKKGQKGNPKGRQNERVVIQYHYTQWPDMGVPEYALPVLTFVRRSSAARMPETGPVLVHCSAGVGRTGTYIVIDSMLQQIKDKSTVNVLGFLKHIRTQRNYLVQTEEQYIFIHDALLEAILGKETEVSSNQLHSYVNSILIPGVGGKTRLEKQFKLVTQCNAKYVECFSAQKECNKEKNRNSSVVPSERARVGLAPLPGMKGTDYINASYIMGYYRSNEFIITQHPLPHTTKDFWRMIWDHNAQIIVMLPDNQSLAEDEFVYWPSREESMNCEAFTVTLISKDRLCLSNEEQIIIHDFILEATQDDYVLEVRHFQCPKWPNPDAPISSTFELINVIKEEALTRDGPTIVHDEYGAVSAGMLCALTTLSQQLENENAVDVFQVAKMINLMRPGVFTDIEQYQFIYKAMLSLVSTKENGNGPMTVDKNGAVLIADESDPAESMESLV

T6 sequence (chain, as listed by the source limits assumed): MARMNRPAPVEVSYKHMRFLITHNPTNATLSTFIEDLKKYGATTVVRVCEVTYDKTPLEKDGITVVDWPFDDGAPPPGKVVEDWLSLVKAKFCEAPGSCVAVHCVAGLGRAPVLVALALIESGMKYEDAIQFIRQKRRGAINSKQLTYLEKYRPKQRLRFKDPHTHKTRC

Binder	binding result (IL13RA1)	binding result (SELL)	binding result (PTP4A3)	binding result (IGSF11)	binding result (SLAMF7)	binding result (HHLA2)	mAb binding (MFI) [1]
B1	no binding (tested: 150 ng IgG1 per well)	no binding (tested: 150 ng IgG1 per well)	no binding (tested: 150 ng IgG1 per well)	no binding (tested: 150 ng IgG1 per well)	no binding (tested: 150 ng IgG1 per well)	no binding (tested: 150 ng IgG1 per well)	7560
B2	no binding (tested: 150 ng IgG1 per well)	no binding (tested: 150 ng IgG1 per well)	no binding (tested: 150 ng IgG1 per well)	no binding (tested: 150 ng IgG1 per well)	no binding (tested: 150 ng IgG1 per well)	no binding (tested: 150 ng IgG1 per well)	15700
B3	no binding (tested: 150 ng IgG1 per well)	no binding (tested: 150 ng IgG1 per well)	no binding (tested: 150 ng IgG1 per well)	no binding (tested: 150 ng IgG1 per well)	no binding (tested: 150 ng IgG1 per well)	no binding (tested: 150 ng IgG1 per well)	15000
